Assay results reported in US20260193365A1 (GRANITE BIO, published 2026).

T1: human CCR2 (human, UniProt O18793 1-360 (rhesus entry))
T1 construct: On primary human monocytes/PBMC and on human-CCR2 transfected CHO cells; also called C-C Motif Chemokine Receptor 2; CD192
T1 chain: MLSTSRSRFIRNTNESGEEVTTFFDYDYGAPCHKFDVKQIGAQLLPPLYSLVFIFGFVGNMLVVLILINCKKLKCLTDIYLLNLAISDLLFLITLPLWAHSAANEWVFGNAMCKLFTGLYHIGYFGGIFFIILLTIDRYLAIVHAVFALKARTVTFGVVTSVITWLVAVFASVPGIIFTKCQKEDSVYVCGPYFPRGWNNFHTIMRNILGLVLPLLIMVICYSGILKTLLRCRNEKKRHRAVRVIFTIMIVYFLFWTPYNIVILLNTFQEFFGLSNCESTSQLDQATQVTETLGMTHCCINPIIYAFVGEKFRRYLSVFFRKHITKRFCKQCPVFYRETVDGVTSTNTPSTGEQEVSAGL

T2: Marmoset monkey (Callithrix jacchus) CCR2 (Marmoset monkey (Callithrix jacchus), UniProt O18793 1-360)
T2 construct: On primary marmoset monocytes (marmoset blood/PBMC); they may hold print errors; also called marmoset CCR2; marmoset CCR2b
T2 chain: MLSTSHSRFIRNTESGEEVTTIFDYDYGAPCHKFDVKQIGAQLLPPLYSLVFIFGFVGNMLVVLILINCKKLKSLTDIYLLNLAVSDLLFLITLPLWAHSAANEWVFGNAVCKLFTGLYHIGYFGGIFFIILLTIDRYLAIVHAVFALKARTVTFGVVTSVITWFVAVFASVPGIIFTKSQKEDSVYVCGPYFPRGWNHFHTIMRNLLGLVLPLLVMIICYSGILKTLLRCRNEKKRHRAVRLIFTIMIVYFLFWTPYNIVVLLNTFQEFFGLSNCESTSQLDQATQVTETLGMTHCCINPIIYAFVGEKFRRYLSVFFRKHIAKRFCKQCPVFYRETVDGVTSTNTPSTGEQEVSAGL


Legend:
human CCR2 [1] = molecular target: T1, human CCR2; test: cell binding, primary human monocytes
[2] = molecular target: T2, Marmoset monkey (Callithrix jacchus) …; test: cell binding, primary marmoset monocytes
human CCR2 [3] = molecular target: T1, human CCR2; test: cell binding, human monocytes
human CCR2 [4] = molecular target: T1, human CCR2; test: cell binding, human PBMCs
[5] = molecular target: T2, Marmoset monkey (Callithrix jacchus) …; test: cell binding, primary marmoset monocytes (marmoset blood)

binding result (human CCR2 [1])	binding result [2]	Binder	further results
binds	no binding	DOC2-RHBXRKB (antibody, human IgG1, kappa, V domains shown, The number agrees with the antibody's name and was used) VH: EVQLVESGGGVVQPGRSLRLSCAASGFTLSNYAMSWVRQAPGKGLEWVAEVSSSGIYIYYSDTVTGRFSISRDNSKNTLYLQMNSLRAEDTAVYYCARDRYAYAMDYWGQGTLVIVSS VL: DIVMTQSPDSLAVSLGERATINCKSSQSLLNSYNQKNSLAWYQQKPGQPPKLLVYFASTRESGVPDRFSGSGSGTDFTLTISSLQAEDVAVYFCQQHYSNPRTFGGGTKLEIKR	–
binds	no binding	DOC2-RHAXRKB (antibody, human IgG1, kappa, V domains shown) VH: EVQLVESGGGVVQPGRSLRLSCAASGFTLSNYAMSWVRQAPGKGLEWVAEVSSSGIYIYYSDTVTGRFTISRDNSKNTLYLQMNSLRAEDTAVYYCARDRYAYAMDYWGQGTLVTVSS VL: DIVMTQSPDSLAVSLGERATINCKSSQSLLNSYNQKNSLAWYQQKPGQPPKLLVYFASTRESGVPDRFSGSGSGTDFTLTISSLQAEDVAVYFCQQHYSNPRTFGGGTKLEIKR	–
binds	no binding	DOC2-RHBXRKC (antibody, human IgG1, kappa, V domains shown) VH: EVQLVESGGGVVQPGRSLRLSCAASGFTLSNYAMSWVRQAPGKGLEWVAEVSSSGIYIYYSDTVTGRFSISRDNSKNTLYLQMNSLRAEDTAVYYCARDRYAYAMDYWGQGTLVIVSS VL: DIVMTQSPDSLAVSLGERATINCKSSQSLLNSYNQKNSLAWYQQKPGQPPKLLVYFASTRESGVPDRFIGSGSGTYFTLTISSLQAEDVAVYFCQQHYSNPRTFGGGTKLEIKR	–
binds	–	DOC2-RHAXRKA (antibody, human IgG1, kappa, V domains shown, also called DOC2-reshaped) VH: EVQLVESGGGVVQPGRSLRLSCAASGFTLSNYAMSWVRQAPGKGLEWVAEVSSSGIYIYYSDTVTGRFTISRDNSKNTLYLQMNSLRAEDTAVYYCARDRYAYAMDYWGQGTLVTVSS VL: DIVMTQSPDSLAVSLGERATINCKSSQSLLNSYNQKNSLAWYQQKPGQPPKLLIYFASTRESGVPDRFSGSGSGTDFTLTISSLQAEDVAVYYCQQHYSNPRTFGGGTKLEIKR	–
binds	no binding	DOC2-RHBXRKA (antibody, human IgG1, kappa, V domains shown) VH: EVQLVESGGGVVQPGRSLRLSCAASGFTLSNYAMSWVRQAPGKGLEWVAEVSSSGIYIYYSDTVTGRFSISRDNSKNTLYLQMNSLRAEDTAVYYCARDRYAYAMDYWGQGTLVIVSS VL: DIVMTQSPDSLAVSLGERATINCKSSQSLLNSYNQKNSLAWYQQKPGQPPKLLIYFASTRESGVPDRFSGSGSGTDFTLTISSLQAEDVAVYYCQQHYSNPRTFGGGTKLEIKR	–
–	–	DOC3 chim. (antibody, human IgG1, kappa, V domains shown) VH: QVQLKESGPGLVAPSQSLSITCTVSGFSLTRYDLSWIRQPPGKGLQWLGVIWTGGGTNYNSAFMSRLSIRKDNSKSQVFLKMNSLQTDDTAIYYCVRENYYNRRGYFDVWGAGTTVTVSS VL: QIVLTQSPAIMSTSPGEKVTITCSASSSVSYMHWFQQKPGTSPKLWIYLTSNLASGVPARFSGSGSGTSYSLTINRMEAEDAATYYCQQRSGSPPTFGTGTKLELRR	binding result (human CCR2 [3]): binds
–	–	DOC3-RHLXRKA (antibody, human IgG1, kappa, V domains shown) VH: QVQLQESDPGLVKPSETLSLTCTVSGFSISRYDLSWIRQPPGKGLEWIGVIWTGGGTNYNSAFMSRLTISKDTSKNQVSLKLSSVTAADTAVYYCARENYYNRRGYFDVWGQGTMVTVSS VL: EIVLTQSPATLSLSPGERATLSCSASSSVSYMHWFQQKPGQAPRLLIYLTSNLASGIPARFSGSGSGTDFTLTISSLEPEDFAVYYCQQRSGSPPTFGPGTKLDIKR	binding result (human CCR2 [4]): binds; binding result [5]: no binding
binds	no binding	DOC3-RH09XRKA (antibody, human IgG1, kappa, V domains shown) VH: EVQLVESGGGLVQPGGSLRLSCAVSGFSLTRYDLSWVRQAPGKGLEWLGVIWTGGGTNYNSAFMSRFSISKDNSKNTVFLQMNSLRAEDTAVYYCARENYYNRRGYFDVWGQGTTVTVSS VL: EIVLTQSPATLSLSPGERATLSCSASSSVSYMHWFQQKPGQAPRLLIYLTSNLASGIPARFSGSGSGTDFTLTISSLEPEDFAVYYCQQRSGSPPTFGPGTKLDIKR	–
–	–	DOC3-RH03XRKA (antibody, human IgG1, kappa, V domains shown) VH: EVQLVESGGGLVQPGGSLRLSCAVSGFSLTRYDLSWVRQAPGKGLEWLGVIWTGGGTNYNSAFMSRLTISRDNSKNTLYLQMNSLRAEDTAVYYCVRENYYNRRGYFDVWGQGTTVTVSS VL: EIVLTQSPATLSLSPGERATLSCSASSSVSYMHWFQQKPGQAPRLLIYLTSNLASGIPARFSGSGSGTDFTLTISSLEPEDFAVYYCQQRSGSPPTFGPGTKLDIKR	binding result [5]: no binding
binds	no binding	DOC3-RH09XRKC (antibody, human IgG1, kappa, V domains shown) VH: EVQLVESGGGLVQPGGSLRLSCAVSGFSLTRYDLSWVRQAPGKGLEWLGVIWTGGGTNYNSAFMSRFSISKDNSKNTVFLQMNSLRAEDTAVYYCARENYYNRRGYFDVWGQGTTVTVSS VL: QIVLTQSPATLSLSPGERATLSCSASSSVSYMHWFQQKPGQAPRLLIYLTSNLASGVPARFSGSGSGTDFTLTISSLEPEDFAVYYCQQRSGSPPTFGPGTKLDIKR	–
–	–	DOC2 chim. (antibody, human IgG1, kappa, V domains shown) VH: EVQLVESGGGLVKPGGSLKLSCVASGFTLSNYAMSWVRQSPEKRLEWVAEVSSSGIYIYYSDTVTGRFSISRDNAKNTLYLEMSSLRSEDTAIYYCARDRYAYAMDYWGHGTSVIVSS VL: DIVMTQSPSSLAISVGQRVTLSCKSSQSLLNSYNQKNSLAWYQQKPGQSPKLLVYFASTRESGVPDRFIGSGSGTYFTLTITSVQAGDLADYFCQQHYSNPRTFGGGTRLEIKR	binding result (human CCR2 [3]): binds
–	no binding	DOC2-ChXRKA (antibody, human IgG1, kappa, V domains shown) VH: EVQLVESGGGLVKPGGSLKLSCVASGFTLSNYAMSWVRQSPEKRLEWVAEVSSSGIYIYYSDTVTGRFSISRDNAKNTLYLEMSSLRSEDTAIYYCARDRYAYAMDYWGHGTSVIVSS VL: DIVMTQSPDSLAVSLGERATINCKSSQSLLNSYNQKNSLAWYQQKPGQPPKLLIYFASTRESGVPDRFSGSGSGTDFTLTISSLQAEDVAVYYCQQHYSNPRTFGGGTKLEIKR	–
